Patent US20010044102, “ASSAYS AND REAGENTS FOR IDENTIFYING MODULATORS OF CDC25-MEDIATED MITOTIC ACTIVATION” (published 2001)

target: GST-C92 Myc/Max heterodimer (UniProt P01106;P61244 P01106:363-454,P61244:1-160); assay: competition; mutant oligo did not compete; settings: tags: GST on Myc C-terminal 92 aa (C92Myc)
From the text: To test whether Myc/Max complexes could efficiently bind to the isolated sites, we performed electrophoretic mobility shift assays (EMSA) on each DNA fragment, confirming that they represent functional myc-binding elements in vitro. For instance, oligonucleotides, matching the Myc binding site from F1, F2 and from the second intron of the cdc25A (MB3) were also checked by EMSA. In this case, oligonucleotides corresponding to a wild type site and a single point mutant within the consensus sequence site were used to compete with the cdc25A sites. […] Similar results were obtained for MB2 and MB3.
For the identification of the Myc/Max binding sequences within the cdc25 genomic regions we utilized an affinity chromatography procedure, similar to immunoprecipitation procedures (Okamoto et al. (1994) EMBO J. 13:4816-4822). Briefly, cdc25 (A, B and C) genomic clones were digested with the Hinfl restriction endonuclease, end-labeled with p32 and further incubated with 10 ng of the GSTC92Myc/Max complexes in the binding buffer (Ayer et al. (1993) Cell 72:211-222), followed by incubation with 20 μl of glutathione sepharose for 30 min at 4° C. Isolated complexes were washed four times in the binding buffer, eluted with proteinase K digestion, treated with phenol/chloroform and further ethanol precipitated. Precipitated material was resuspended in 10-20 μl of TE and subjected to polyacrylamide gel (PAG) electrophoresis, followed by autoradiography. Total digests were treated the same way, except affinity chromatography on the glutathione beads, and run as a control on a gel on a parallel lane with the purified material. Electrophoretic mobility shift assays (EMSA) were done either with F1 or F2 fragments or with the synthetic oligonucleotides, corresponding to MB 1, MB2 or MB3 as described in the art, c. f., Ayer et al. (1993) Cell 72:211-222. Mutant oligonucleotides correspond to the same sequence as F1 and F2 with CATGTG changed to CAACTG (for A1 and A2) or CACGTG changed to CACCTG (for A3). CM-1 oligonucleotide has been described (Ayer et al. supra).

Chain of GST-C92 Myc/Max heterodimer (P01106 363-454, chain 1 of 2): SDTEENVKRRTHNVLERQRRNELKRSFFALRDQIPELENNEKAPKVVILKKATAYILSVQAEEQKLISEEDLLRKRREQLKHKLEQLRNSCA
Chain of GST-C92 Myc/Max heterodimer (P61244 whole entry, chain 2 of 2, the tested form may be a part): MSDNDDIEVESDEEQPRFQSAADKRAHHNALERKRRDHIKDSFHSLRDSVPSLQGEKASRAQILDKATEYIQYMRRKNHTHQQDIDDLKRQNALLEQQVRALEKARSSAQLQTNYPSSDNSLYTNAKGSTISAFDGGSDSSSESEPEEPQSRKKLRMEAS

| Binder | binding result |
| --- | --- |
| MB1 (A1) mutant oligo (dsDNA, [11,12]) DNA 1: GGGCCTGCCAACTGCACCCCGCCCGGG DNA 2: CCCGGGCGGGGTGCAGTTGGCAGGCCC | no binding |
| MB2 (A2) mutant oligo (dsDNA, [11,12]) DNA 1: GCACAAGACAACTGCTTAGCAAACGGG DNA 2: CCCGTTTGCTAAGCAGTTGTCTTGTGC | no binding |
| MB3 (A3) mutant oligo (dsDNA, [12]) DNA 1: ACTACAGACACCTGCCACCACACCCAA DNA 2: TTGGGTGTGGTGGCAGGTGTCTGTAGT | no binding |
